Source: the nanobody polyreactivity screen of Harvey et al. (2022)

Assay: yeast display, Sf9 membrane polyspecificity reagent, FACS + sequencing; frameworks hold sequencing errors
Procedure, shortened: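 Galactose induction of a Saccharomyces cerevisiae BJ5465 synthetic nanobody display library ran 36–48 hours. The cells were then stained for 1 hour at 4 °C with 10% biotinylated, detergent-solubilized Sf9 membrane reagent, pulled down on streptavidin microbeads and FACS-sorted into low and high (top ~1%) gates on expression and reagent-binding fluorescence. Labels for polyreactivity follow the gate of origin.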

Sequence | polyreactivity (PSR sort gate)
QVQLVESGGGLVQAGGSLRFSCSASGSIFNYYTMGWYRQAPGKERELVAVITSGGSTYYADSVKGRFTISRDNAKNTVYLQMNSLKPEDTAVYYCAAKRRSYLKQGYSVGYWGQGSQVTVSS | high polyreactivity
QVQLVESGGGLVQAGGSLRLSCAASGRIFARNALGWYRQAPGKEGELVARIRASGGSTYYADSVKGRFTISRDNAKNTVYLQMNSLKPEDTAVYYCNARTSSPYRVDYWGQGTQVTVSS | high polyreactivity
QVQLVESGGRLVQAGGSLRLSCAASGRILRYYALGWYRQAPGKERELVASISRGGSTYYADSVKGRFTISRDNAKNTVYLQMNSLKPEDTAVYDCATEVRRSTREFGYWGQGTQVTVSS | high polyreactivity
QVQLVESGGGLVQAGGSLRLSCAASGRIFSRYAMGWYRQAPGKERELVAAITSNGGSTYYADSVKGRFTISRDNAKNTVYLQMNSLKPEDTAVYYCAAKSYWLHYDYWGQGTQVTVSS | high polyreactivity
QVQLVESGGGLVQAGGSLRLSCAASGRTFYGNVMGWYRQAPGKEREWVAVISWSSGSTSYADSVKGRFTISRDNAKNTVYLQMNSLKPEDTAVYYCAGTTRPPRYRQYDSDYYYWGQGTQVTVSS | low polyreactivity
QVQLVESGGGLVQAGGSLRLSCAASGSTFGVNAMGWYRQAPGKERELVAVITRSGGSTYYADSVKGRFTISRDNAKNTFNLQMNSLKPEDSAVYYCNTEGGRDTAWYDYWGQGTEVTVSS | low polyreactivity
QVQLVESGGGLVQAGGSLRLSCAASGRIFGYNAMGWYRQATGKERELVAGITRNDGSTYYADSVKGRFTISRDNAKNTVYLLMNSLKPEDTAVYYCYRYLHLAGSWGQGTQVTVSS | low polyreactivity
QVQLVESGGGLVQAGGSLRLSCAASGIIFAYYAMGWYRQAPGKERELVAAISWNSGYTYYADSVKGRFTISRDNAKNTVYLQMNSLKPEDSAVYYCAAESYYSYSYYRPYEYYYWGQGTQLTVSS | high polyreactivity
QVQLVESRGGLVQAGGSLRLSCAASGSIFGYYTMGWYRQAPGKDRELVAAISARGGRTYYADSVKGRFTISRDNAKNTVYLLMNSLKPEDTAVYYCAKRVYRRLYTGGQNPYDYWGQGTQVTVSS | high polyreactivity
QVQLVESGGGLVQAGGSLRLSCPASGSTIFGTAMGWYRQAPGKDWELVAASSYSGDSTYYADSVKGRFTISRDNAKHTVYVEMISLKPEDTAVYYCAAGFVIKYDYWGQGTQVTVSS | low polyreactivity
QVQLVESGGGLVQAGGSLRLSCAASGRIFIPYAMAWYRQAPGNERELVAAISSSGGSTYYADSVKGRFTISRDNAKNTVYLQMNSLKPEDTAVYYCSALLYWWYAYETYSSLFEYDYWGQGTLVTVSS | low polyreactivity
QVQLVESGGGLVQAGGSLRLSCAASGRTFDVYAMGGYRQAPGKERELVATIYYRSARTYYADSVKGRFTISRDNAKNTVYLQMNSLTPEDTAVYYCAAYFETWHGFGYWGQGTQVTVSS | high polyreactivity
QVQLVESGGGLVQAGGSLRLSCAASGSIFGQYAMGWYRQAPGKERELVAAISTRGGSTRYADSVKGRFTISRDNAKNTVYLQMNSLKPEDTAVYYCAARVPYIRHLAVDYWGQGTQVTVSS | high polyreactivity
QVQLVESGGGLVQAGGSLRLSCAASGSILPLYAMGGYRQAPGKERELVATISNAGSTTYADSVKGRFTISRDNAKNTVYLQMNSLKPEVTAVYYCNAESEWGWVYVGYDYWGQGTQVTVSS | low polyreactivity
QVQLVESVGGLVQAGGSLRLSCAASGSIFQPYAMGWYRQAPGKERELVAAISIGDSTNYADSLKGRFTISRDNAKNTFYLQMNSLIPEDTAVYYCNTTGEYYDYWGQGTQVTVSS | low polyreactivity
QVQLVESGGGLVQAGGSLRLSCAASGSILSGYAMGWYRQAPGKERELVAAITSGGDTNYADSVKGRFTISRDNAKNTVYLQMNSLKPEDTAVYYCNRGGDFRIAYYDPMDYWGQGTQVTVSS | low polyreactivity
QVQLVESGGGLVQAGGSLRLSCAASGCIVSYYTMGWYRQAPGKERELVAAIRSSGGSTYADSVKGRFTISRDNAKNTVYLQMNCLKPEDTAVYYCAAVQTWRWVYARDYWGEGTQVTVSS | high polyreactivity
